Molecular target: trypsin from porcine pancreas (porcine, UniProt P00761 9-231)
Assay: native MS

Chain of trypsin from porcine pancreas (P00761 9-231): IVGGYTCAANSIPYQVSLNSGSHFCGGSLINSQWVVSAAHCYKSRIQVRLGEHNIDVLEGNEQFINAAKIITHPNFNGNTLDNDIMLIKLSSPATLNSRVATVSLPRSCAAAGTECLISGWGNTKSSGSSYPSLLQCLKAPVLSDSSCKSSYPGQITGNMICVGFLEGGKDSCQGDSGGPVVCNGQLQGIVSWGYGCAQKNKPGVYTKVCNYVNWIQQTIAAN

B1: Soybean trypsin inhibitor (natural protein)
chain: DFVLDNEGNPLENGGTYYILSDITAFGGIRAAPTGNERCPLTVVQSRNELDKGIGTIISSPYRIRFIAEGHPLSLKFDSFAVIMLCVGIPTEWSVVEDLPEGPAVKIGENKDAMDGWFRLERVSDDEFNNYKLVFCPQQAEDDKCGDIGISIDHDDGTRRLVVSKNKPLVVQFQKLDKESL
  apparent Kd (without RF correction): 27.1 ± 8.4 µM

Reference: PMC9335916 (ACS Central Science, 2022)
